Results from patent US20210230263A1 (BIOATLA, published 2021).
Changes are numbered by the printed parent chain. Values belong to the binder of their own block, whether it stands above or below them.

How the values were obtained:
human IL-22 [1] = target: T1, human IL-22 (human, UniProt Q9GZX6 34-179); test: cell-based or functional assay
T1 sequence (looked up): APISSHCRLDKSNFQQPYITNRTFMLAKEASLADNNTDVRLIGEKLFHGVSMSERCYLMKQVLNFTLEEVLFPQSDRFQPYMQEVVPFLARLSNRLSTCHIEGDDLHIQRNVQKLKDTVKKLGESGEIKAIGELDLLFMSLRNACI

human IL-22 [2] = target: T1, human IL-22; test: affinity ELISA on hIL22, mAb concentration at 50% max signal
mouse IL-22 [3] = target: T2, mouse IL-22 (mouse, UniProt Q9JJY9 34-179); test: ELISA on coated antigen (1 ug/ml), anti-hIgG-HRP, OD450;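 note: specificity check of antibodies applied at 100 ng/ml to wells bearing human or mouse IL-22, related cytokines or an unrelated control antigen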
T2 construct: also called mIL-22; mIL22
T2 sequence (looked up): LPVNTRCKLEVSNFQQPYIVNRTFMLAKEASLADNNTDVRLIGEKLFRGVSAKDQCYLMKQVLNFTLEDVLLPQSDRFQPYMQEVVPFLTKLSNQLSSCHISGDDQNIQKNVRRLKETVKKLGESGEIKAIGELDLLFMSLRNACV
Description: (§1) Plates were coated with 100 μl antigens at a concentration of 1 μg/ml. The plates were exposed to the antibodies at a concentration of 100 ng/ml. The bound antibodies were detected with anti-hIgG-HRP by the ELISA assay.

human IL19 = target: T3, human IL19 (human, UniProt Q9UHD0 25-177); test: as above
T3 sequence (looked up): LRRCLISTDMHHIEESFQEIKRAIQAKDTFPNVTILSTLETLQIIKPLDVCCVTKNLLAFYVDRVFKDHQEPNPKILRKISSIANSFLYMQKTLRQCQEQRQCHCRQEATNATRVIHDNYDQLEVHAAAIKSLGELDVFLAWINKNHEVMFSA
Description: as §1

human IL20 = target: T4, human IL20 (human, UniProt Q9NYY1 25-176); test: as above
T4 sequence (looked up): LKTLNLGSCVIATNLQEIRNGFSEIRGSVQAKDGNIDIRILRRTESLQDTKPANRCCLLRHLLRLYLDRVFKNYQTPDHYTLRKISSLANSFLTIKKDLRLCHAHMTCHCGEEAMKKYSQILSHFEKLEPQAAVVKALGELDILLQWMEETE
Description: as §1

human IL24 = target: T5, human IL24 (human, UniProt Q13007 52-206, limits assumed); test: as above
T5 sequence (looked up): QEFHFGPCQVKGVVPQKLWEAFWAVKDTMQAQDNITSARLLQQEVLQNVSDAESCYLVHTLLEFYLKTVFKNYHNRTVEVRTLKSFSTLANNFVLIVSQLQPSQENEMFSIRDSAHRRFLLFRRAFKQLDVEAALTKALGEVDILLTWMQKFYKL
Description: as §1

human IL26 = target: T6, human IL26 (human, UniProt Q9NPH9 22-171, limits assumed); test: as above
T6 sequence (looked up): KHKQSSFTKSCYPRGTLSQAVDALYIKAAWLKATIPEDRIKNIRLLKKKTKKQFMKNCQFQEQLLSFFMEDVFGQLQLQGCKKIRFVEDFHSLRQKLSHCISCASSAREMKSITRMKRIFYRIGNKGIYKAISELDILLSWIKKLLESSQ
Description: as §1

INF-γ = target: T7, INF-γ (Homo sapiens (Human), UniProt P01579 24-161); test: as above
T7 sequence: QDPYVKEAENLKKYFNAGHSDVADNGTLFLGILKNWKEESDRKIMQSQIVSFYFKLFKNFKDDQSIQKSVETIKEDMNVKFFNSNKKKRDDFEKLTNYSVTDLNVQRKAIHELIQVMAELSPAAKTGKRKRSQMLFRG
Description: as §1

INF-λ1 = INF-λ1 (Homo sapiens (Human), UniProt Q8IU54 20-200); test: as above
Description: as §1

mouse IL-22 [4] = target: T2, mouse IL-22; test: cell-based or functional assay
[5] = target: IL-22 (CXCL1 assay in HT29 cells); test: cell-based or functional assay
[6] = target: IL-22 (CXCL1 assay in HT29 cells); test: cell-based or functional assay; remark: listed apart in the source
mouse IL-22 [7] = target: T2, mouse IL-22; test: affinity ELISA on mIL22, mAb concentration at 50% max signal
human IL-22 [8] = target: T1, human IL-22; test: affinity ELISA on hIL22, mAb concentration at 50% max signal (second row of the same name)
mouse IL-22 [9] = target: T2, mouse IL-22; test: affinity ELISA on mIL22, mAb concentration at 50% max signal (second row of the same name)
human IL-22 [10] = target: T1, human IL-22; test: SPR (SierraSensors SPR-2), hIL-22 immobilized on chip, antibody injected, Langmuir 1:1 model
Description: (§2) The affinity of the 10 antibodies of Table 1 was measured by Surface Plasma Resonance (SPR) using a capture assay on a SPR-2 instrument (SierraSensiors, Hamburg, Germany). The antigens hIL-22 and mIL-22 were immobilized on chips. The running buffer for the assay contained 10 mM HEPES with a pH of 7.4, 500 mM NaCl, and 0.05% TWEEN® 20. […] The off-rate was measured for 6 minutes. Binding constants were calculated using the curve fitting software Analyzer2 (Sierra Sensors). Sensorgrams were analyzed with the instrument specific software and with BIAevaluation 4.1 software. The binding data were analyzed using the Langmuir 1:1 model (human IL-22) or a model for a heterogeneous ligand (mouse IL-220).

mouse IL-22 [11] = target: T2, mouse IL-22; test: SPR (SierraSensors SPR-2), mIL-22 immobilized on chip, antibody injected, heterogeneous ligand model
Description: as §2

Sequence of INF-λ1 (Q8IU54 20-200 limits assumed): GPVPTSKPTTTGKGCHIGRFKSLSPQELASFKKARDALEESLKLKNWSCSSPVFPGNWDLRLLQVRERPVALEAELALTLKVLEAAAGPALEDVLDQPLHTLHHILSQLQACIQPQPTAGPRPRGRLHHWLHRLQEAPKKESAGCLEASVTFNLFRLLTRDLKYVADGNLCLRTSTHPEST

STAT3 Phosphorylation; hIL22 % inhibition mAb [0.73 nM] (human IL-22 [1]): 7% | EC50 (human IL-22 [2]): 2220 pM | binding result (mouse IL-22 [3]): no binding (tested: 100 ng/ml) | binding result (human IL19): no binding (tested: 100 ng/ml) | binding result (human IL20): no binding (tested: 100 ng/ml) | binding result (human IL24): no binding (tested: 100 ng/ml) | binding result (human IL26): no binding (tested: 100 ng/ml) | binding result (INF-γ): no binding (tested: 100 ng/ml) | binding result (INF-λ1): no binding (tested: 100 ng/ml)
B1: hum10 (antibody, V domains shown)
VH: QVQLVQSGAEVKKPGASVKVSCKASGYIFTSYWIHWIRQPPGKGLEWIGRIYPGTGNTYYNEKFKGRVTISADKSISTAYLQWSSLKASDTAMYYCARSYDSSCAYWGQGTLVTVSS
VL: AIQLTQSPSSLSASVGDRVTITCSASSSVSYMHWYLQKPGQSPQLLIYETSKLASGVPSRFSGSGSGTDFTFTISSLEAEDAATYYCQQWSSNPYITFGQGTKVEIKR
notes: Humanized monoclonal antibody derived from murine 3C3; also called parent antibody hum10; humanized 3C3

STAT3 Phosphorylation; hIL22 % inhibition mAb [0.73 nM] (human IL-22 [1]): 12.1% | Acute Phase response 5 µg mIL22 and 5 µg mAb (% signal reduction), molar ratio mIL22: mAb = 4.5:1 (serum amyloid in mice) (mouse IL-22 [4]): 73% | Acute Phase response 5 µg mIL22 and 50 µg mAb (% signal reduction), molar ratio of mIL22:mAb = 1:2.2 (serum amyloid in mice) (mouse IL-22 [4]): 42% | CXCL-1 Assay (IC50 [pM]) double data points 02122015 [5]: 204 pM | CXCL-1 Assay (IC50 [pM]) single data points 02052015 [5]: 411 pM | IC50 (parameter C of the log-logit fit y=(A-D)/(1+(x/C)^B)+D) of inhibition of IL-22-induced CXCL1 production in HT29 cells [6]: 61.6 ng/ml | EC50 (human IL-22 [2]): 81 pM | EC50 (mouse IL-22 [7]): 141 pM | EC50 (human IL-22 [8]): 74 pM | EC50 (mouse IL-22 [9]): 34 pM | Kd (human IL-22 [10]): 25.3 pM | koff (human IL-22 [10]): 2.18e-05 s⁻¹ | Kd (mouse IL-22 [11]): 3960 pM | koff (mouse IL-22 [11]): 0.000768 s⁻¹
B2: CPS-09 (antibody, V domains shown)
VH: B1 VH with T30R, N57R, S102Y, C104V
VL: B1 VL with S51R
notes: Mutant of humanized hum10, whole antibody expressed in CHO cells; also called CPS-hit-09; CSP09

STAT3 Phosphorylation; hIL22 % inhibition mAb [0.73 nM] (human IL-22 [1]): 33.8% | Acute Phase response 5 µg mIL22 and 5 µg mAb (% signal reduction), molar ratio mIL22: mAb = 4.5:1 (serum amyloid in mice) (mouse IL-22 [4]): 81% | CXCL-1 Assay (IC50 [pM]) double data points 02122015 [5]: 131 pM | CXCL-1 Assay (IC50 [pM]) single data points 02052015 [5]: 197 pM | IC50 (parameter C of the log-logit fit y=(A-D)/(1+(x/C)^B)+D) of inhibition of IL-22-induced CXCL1 production in HT29 cells [6]: 29.5 ng/ml | EC50 (human IL-22 [2]): 27 pM | EC50 (mouse IL-22 [7]): 42 pM | binding result (human IL19): no binding (tested: 100 ng/ml) | binding result (human IL20): no binding (tested: 100 ng/ml) | binding result (human IL24): no binding (tested: 100 ng/ml) | binding result (human IL26): no binding (tested: 100 ng/ml) | binding result (INF-γ): no binding (tested: 100 ng/ml) | binding result (INF-λ1): no binding (tested: 100 ng/ml) | EC50 (human IL-22 [8]): 54 pM | EC50 (mouse IL-22 [9]): 19 pM | Kd (human IL-22 [10]): 25 pM | koff (human IL-22 [10]): 4.67e-05 s⁻¹ | Kd (mouse IL-22 [11]): 3280 pM | koff (mouse IL-22 [11]): 0.000545 s⁻¹
B3: CPS-02 (antibody, V domains shown)
VH: B1 VH with T30R, N57R, C104V
VL: B1 VL with E49K, S51R
notes: Mutant of humanized hum10, whole antibody expressed in CHO cells; also called CPS-hit-02; CSP02
